Experimental data reported in paper PMC2786004 (Biochemistry, 2009).

Target: the molecule itself
Assay: crystal structure

B1: Bacillus halodurans tRNA isopentenyltransferase MiaA (BH2366), full length (enzyme, UniProt Q9KAC3 1-314, looked up)
chain: MKEKLVAIVGPTAVGKTKTSVMLAKRLNGEVISGDSMQVYRGMDIGTAKITAEEMDGVPHHLIDIKDPSESFSVADFQDLATPLITEIHERGRLPFLVGGTGLYVNAVIHQFNLGDIRADEDYRHELEAFVNSYGVQALHDKLSKIDPKAAAAIHPNNYRRVIRALEIIKLTGKTVTEQARHEEETPSPYNLVMIGLTMERDVLYDRINRRVDQMVEEGLIDEAKKLYDRGIRDCQSVQAIGYKEMYDYLDGNVTLEEAIDTLKRNSRRYAKRQLTWFRNKANVTWFDMTDVDFDKKIMEIHNFIAGKLEEKSK
stoichiometry N: 2
